Data published in patent US20250136696A1 (HARBOUR BIOMED SHANGHAI, published 2025).
Residue numbers refer to the chain shown, from its start.

T1: biotinylated human B7-H7 protein (Acro Biosystems, B77-H82F5) (human, UniProt Q9UM44 23-344, biotinylated)
T1 construct: Bought soluble protein; also called biotin-B7H7 protein
T1 sequence (looked up): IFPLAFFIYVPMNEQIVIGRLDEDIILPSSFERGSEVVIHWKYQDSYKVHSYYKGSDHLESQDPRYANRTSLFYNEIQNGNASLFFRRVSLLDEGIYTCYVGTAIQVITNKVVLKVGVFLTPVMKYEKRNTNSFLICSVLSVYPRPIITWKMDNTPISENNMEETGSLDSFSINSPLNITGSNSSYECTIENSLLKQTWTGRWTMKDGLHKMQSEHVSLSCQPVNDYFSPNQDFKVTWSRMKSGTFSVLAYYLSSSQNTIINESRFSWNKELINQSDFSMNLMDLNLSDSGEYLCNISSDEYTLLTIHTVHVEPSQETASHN

T2: human B7-H7 recombinant protein (human, UniProt Q9UM44 23-344)
T2 construct: also called human B7-H7 protein
T2 sequence (looked up): T1 sequence (looked up)

B1: PR003264 (antibody, human IgG1, kappa)
heavy: not shown
light: DIQLTQSPSFLSASVGDRVTITCRASQGISSYFAWYQQKPGKAPKLLIYAASTLQSGVPSRFSGSGSGTEFTLTISSLQPEDFATYYCQHLNRYPWTFGQGTKVEIKRTVAAPSVFIFPPSDEQLKSGTASVVCLLNNFYPREAKVQWKVDNALQSGNSQESVTEQDSKDSTYSLSSTLTLSKADYEKHKVYACEVTHQGLSSPVTKSFNRGEC
notes: Human IgG1; also called 77G10D3
B2: PR003251 (antibody, human IgG1, kappa, V domains shown)
VH: QVQLVESGGGVVQPGRSLRLSCAVSGFTFSRYGMHWVRQAPGKGLDWVAVIWYNGNNKYYTDSVKGRFTISRDNSKNTLFLQMNSLRAEDTAVYYCARDGAYSYGPFDYWGQGTLVTVSS
VL: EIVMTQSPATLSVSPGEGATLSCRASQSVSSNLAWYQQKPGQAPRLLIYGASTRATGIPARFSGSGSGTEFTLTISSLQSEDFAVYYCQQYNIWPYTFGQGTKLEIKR
notes: Human IgG1; also called 29F2C8
B3: PR003254 (antibody, human IgG1, kappa, V domains shown)
VH: B2 VH with V24A, R31S, D46E, V50D, T61A, F80Y, V93L, A101G
VL: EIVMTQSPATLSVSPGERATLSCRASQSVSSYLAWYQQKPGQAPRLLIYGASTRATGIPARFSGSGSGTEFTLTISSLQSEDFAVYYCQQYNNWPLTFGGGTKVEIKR
notes: Human IgG1; also called 59D6D2
B4: PR003262 (antibody, human IgG1, kappa, V domains shown)
VH: B2 VH with V24A, M34I, D46E, N56R, T61V, F80Y, A101G
VL: EIVMTQSPATLSVSPGERATLSCRASQSFSNNLAWYQQKPGQAPRLLIYGASTRATGIPARFSGSGSGTEFTLTISSLQSEDFAVYYCHQYNIWPLTFGGGTKVEIKR
notes: Human IgG1; also called 77D5A4
B5: PR003260 (antibody, human IgG1, kappa, V domains shown)
VH: QVQLVESGGGVVQPGRSLRLPCAASGFTFSRYGMHWVRQAPGKGLEWVADIWYDGSKKYYADSVKGRFTISRDNSKNTLYLQMNSLRAEDTAVYFCTRDGGYSYGPFDYWGQGTLVTVSS
VL: B4 VL with F29V, N31S, G50Y, T56P, G66E, H89Q, L96Y, G100Q, V104L
notes: Human IgG1; also called 70F3B1
B6: PR003263 (antibody, human IgG1, kappa, V domains shown)
VH: QVQLVESGGGVVQPGRSLRLSCAASGFTFSYYGLNWVRQAPGKGLEWVAVIWFDGTNKYYADSVKGRFTISRDDSKNTLYLQMNSLRAEDTAVYYCARGYGSGSYYNYVMDAWGQGASVTVSS
VL: B4 VL with F29V, N31S, R54G, E70D, H89Q, N92Y, I93K
notes: Human IgG1; also called 77E6C4
B7: PR004263 (antibody, human IgG1, kappa, L234A L235A)
heavy: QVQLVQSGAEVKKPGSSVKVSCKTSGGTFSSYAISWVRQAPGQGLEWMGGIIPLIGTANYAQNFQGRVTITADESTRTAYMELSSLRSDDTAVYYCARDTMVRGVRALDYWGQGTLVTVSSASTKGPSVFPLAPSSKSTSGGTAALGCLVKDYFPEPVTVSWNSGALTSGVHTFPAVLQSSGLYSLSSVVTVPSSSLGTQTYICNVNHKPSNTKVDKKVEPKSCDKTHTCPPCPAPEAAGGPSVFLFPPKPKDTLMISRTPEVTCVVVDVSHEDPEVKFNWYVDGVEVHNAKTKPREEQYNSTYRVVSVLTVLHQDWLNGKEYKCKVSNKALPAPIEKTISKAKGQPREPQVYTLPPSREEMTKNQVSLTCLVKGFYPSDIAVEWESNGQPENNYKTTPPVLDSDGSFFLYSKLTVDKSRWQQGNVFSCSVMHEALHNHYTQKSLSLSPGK
light: B1 light
notes: Variant of PR003264; Human IgG1 with LALA mutation in Fc
B8: PR004260 (antibody, human IgG1, kappa, L234A L235A)
heavy: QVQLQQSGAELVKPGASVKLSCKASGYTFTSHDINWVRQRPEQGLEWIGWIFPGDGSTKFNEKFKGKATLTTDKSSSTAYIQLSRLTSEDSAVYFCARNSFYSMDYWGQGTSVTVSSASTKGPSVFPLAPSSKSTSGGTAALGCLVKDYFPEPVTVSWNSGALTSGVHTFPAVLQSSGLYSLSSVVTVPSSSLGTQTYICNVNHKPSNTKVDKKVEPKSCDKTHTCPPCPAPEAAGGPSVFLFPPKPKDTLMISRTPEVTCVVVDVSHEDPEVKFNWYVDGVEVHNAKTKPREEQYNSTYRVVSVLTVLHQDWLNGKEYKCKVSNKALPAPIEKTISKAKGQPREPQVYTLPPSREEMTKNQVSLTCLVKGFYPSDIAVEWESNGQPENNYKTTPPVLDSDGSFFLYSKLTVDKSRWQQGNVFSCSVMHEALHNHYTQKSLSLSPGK
light: DIVMSQSPSSLAVSAGEKVTMSCKSSQSLLNSRTRKNQLAWYQQKPGQSPKLLIYWASTRESGVPDRFTGSGSGTDFTLTISSVQAEDLAVYYCKQSYNLRTFGGGTKLEIKRTVAAPSVFIFPPSDEQLKSGTASVVCLLNNFYPREAKVQWKVDNALQSGNSQESVTEQDSKDSTYSLSSTLTLSKADYEKHKVYACEVTHQGLSSPVTKSFNRGEC
notes: Variant of PR003181; Human IgG1 with LALA mutation in Fc

target: T3, cynomolgus monkey B7-H7 on the cell surface (cynomolgus monkey); assay: flow cytometry, HEK-293/cyno B7-H7 cells
T3 construct: whole, on cells; also called cyno B7-H7
Experimental: This example was intended to study the in vitro activity of H2L2 monoclonal antibodies against human B7-H7 in binding to human/cynomolgus monkey B7-H7. Since homologous molecules of B7-H7 were not present in mice, the detection was not performed. […] The cells were adjusted to a cell density of 1×10⁶ cells/mL, respectively. The cells were seeded in a 96-well V-bottom plate (Corning, #3894) at 100 μL/well, and the antibody to be tested at 2× final concentration with 3-fold concentration gradient dilution was then added at 100 μL/well. The cells were incubated at 4° C. for 2 hours in the dark. After the incubation, the cells were rinsed twice by adding pre-chilled PBS containing 2% BSA at 100 μl/well, and centrifuged at 500 g at 4° C. for 5 minutes, and the supernatant was discarded. […] The cells were washed twice by adding pre-chilled PBS containing 2% BSA at 100 μL/well, and centrifuged at 500 g at 4° C. for 5 minutes, and the supernatant was discarded. Finally, the cells were resuspended in pre-chilled PBS containing 2% BSA at 200 μL/well, and the fluorescence signal values were read using an ACEA Novocyte3000 flow cytometer.

EC50	Maximum MFI	Binder
0.829 nM	290000 MFI	B1
0.522 nM	430000 MFI	B2
1.24 nM	389000 MFI	B3
0.59 nM	419000 MFI	B4
0.588 nM	447000 MFI	B5
0.556 nM	410000 MFI	B6

target: T1, biotinylated human B7-H7 protein (Acro …); assay: flow cytometry, blocking of biotinylated human B7-H7 binding to CHO-K1/KIR3DL3 cells
Excerpt: This example was intended to study the in vitro blocking activity of human anti-B7-H7 antibodies against the binding of human B7-H7 to its receptor KIR3DL3. A CHO-K1 cell (CHO-K1/KIR3DL3, Harbour BioMed US, Inc.) overexpressing human KIR3DL3 was used in experiments at the cellular level where human B7-H7/human KIR3DL3 binding was blocked. Briefly, the CHO-K1/KIR3DL3 cells were digested and resuspended in PBS containing 2% BSA. The cells were adjusted to a cell density of 1×10⁶ cells/mL. […] The cells were incubated at 4° C. for 1 hour in the dark. […] The cells were rinsed twice by adding pre-chilled PBS containing 2% BSA at 100 μL/well, and were centrifuged at 500 g at 4° C. for 5 minutes, and the supernatant was discarded. A fluorescent secondary antibody (PE Streptavidin, BD, Cat #: 554061, 1:200) was added at 100 μL/well, and the cells were incubated at 4° C. for 30 minutes in the dark. The cells were washed twice by adding pre-chilled PBS at 200 µL/well, and centrifuged at 500 g at 4° C. for 5 minutes, and the supernatant was discarded. Finally, the cells were resuspended in pre-chilled PBS at 200 μL/well, and the fluorescence signal values were read using an ACEA Novocyte3000 flow cytometer. IC50 was calculated.

IC50	Maximum inhibition rate (%)	Binder
8.56 nM	104%	B1
8.77 nM	99.9%	B7
6.34 nM	96.4%	B2
7.18 nM	97.2%	B3
9.93 nM	105%	B4
8.51 nM	96.2%	B8
6.46 nM	106%	B5
6.23 nM	103%	B6

target: T2, human B7-H7 recombinant protein; assay: BLI (Octet), antibody captured on AHC sensor, human B7-H7 in solution, 1:1 global fit
Experimental: The binding kinetics between antigen and antibody was analyzed using an Octet Red 96e (Fortebio) molecular interaction analyzer by biolayer interferometry (BLI) technology.
For determining the affinity of antibodies for antigens, the rotary speed of the sensor was set at 1000 rpm. AHC sensors (Fortebio, #18-5060) placed in one column were first equilibrated in a test buffer for 10 minutes, and then used to capture the anti-B7-H7 antibodies at a capture height of 0.7 nm; and after being equilibrated in the buffer for 120 s, the AHC sensors bound to human B7-H7 (concentrations: 50-3.125 nM and 0 nM) with 2-fold gradient dilution for 180 s and dissociated for 300 s. The AHC sensors were finally regenerated by immersing in a 10 mM glycine-hydrochloric acid solution with pH 1.5 to elute the protein bound to the sensors.
For data analysis using Octet Data Analysis software (Fortebio, version 11.0), 0 nM well was used as the reference well, reference subtraction was performed, “1:1 Global fitting” method was selected for data fitting, the kinetic parameters of the binding of the antigen to the antigen-binding protein were calculated, and the kₒₙ (1/Ms) value, kdis (1/s) value and KD (M) value were obtained.

Kd	koff	kon	Binder
2.94 nM	0.000115 s⁻¹	39000 M⁻¹ s⁻¹	B1
6.7 nM	0.000632 s⁻¹	94300 M⁻¹ s⁻¹	B2
32.3 nM	0.00245 s⁻¹	75600 M⁻¹ s⁻¹	B3
1.55 nM	0.000117 s⁻¹	75500 M⁻¹ s⁻¹	B4
1.68 nM	0.000102 s⁻¹	61100 M⁻¹ s⁻¹	B5
5.44 nM	0.000441 s⁻¹	81100 M⁻¹ s⁻¹	B6

target: T1, biotinylated human B7-H7 protein (Acro …); assay: BLI epitope competition on SA-captured biotinylated B7-H7; competitor (first antibody) PR003249
Experimental: Epitope competition experiments were performed on the anti-B7-H7 antibodies using the ForteBio Octet Red96e platform with the same experimental buffer as described above. […] After being equilibrated in a buffer for 120 s, the sensors were immersed in various antibodies diluted to 100 nM for 240 s, and the final signal of the antibody binding to B7-H7 was recorded as the 100% signal for that antibody. Second step, epitope competition experiment: B7-H7 was captured using SA sensors at a capture height of 0.25 nm. The sensors were immersed in a first antibody (concentration: 100 nM) for 240 s, then the SA sensors were immersed in a mixture of the first antibody and a second antibody (final concentration of both antibodies: 100 nM) for 240 s, and the difference in signals before and after immersing the sensors in the mixture of the two antibodies was recorded as the signal for that antibody as the second antibody. The inhibition rate was calculated by the following equation, […]

Competitive inhibition rate (%)	Binder
109%	B1
-6.54%	B2
-5.96%	B3
-2.6%	B4
-3.18%	B5
-0.324%	B6
